Results taken from patent publication US11918645B2, “Vaccines against hepatitis B virus” (priority 2012, dated 2024).

Key:
[1] = biological target: T1, HLA-DR7 (α1*01:01;β1*07:01) (Homo sapiens, UniProt P01903+P01911, A100R/A102G/A103Q/D57E/D86V/E43K/F76Y/K127E/L162R/M171V/P40G/Q125H/Q99D/R195Q/R33Q/R42Y/R54Q/S133A/S149N/S66F/T210M/V115G/Y107V/Y59L/Y89S); test: ProImmune REVEAL MHC class II binding assay of long peptides; conditions: percentage of the signal of the positive control peptide; positive binding score >=15%
T1 construct: purchased ProImmune
Source text: (§1) The highly frequent HLA class II alleles HLA-DR1 (α1*01:01;β1*01:01), HLA-DR15 (α1*01:01;β1*15:01), HLA-DR3 (α1*01:01;β1*03:01), HLA-DR4 (α1*01:01;β1*04:01), HLA-DR11 (α1*01:01;β1*11:01), HLA-DR13 (α1*01:01;β1*13:01), and HLA-DR7 (α1*01:01;β1*07:01) were selected. Each peptide was given a score relative to the positive control peptide, which is a known T-cell epitope. The score of the test peptide is reported quantitatively as a percentage of the signal generated by the positive control peptide, and the peptide is indicated as having a putative pass or fail result. Good binders are considered to be those peptides with scores >=15% of the positive control as defined by Proimmune.

[2] = biological target: T2, HLA-DR15 (α1*01:01;β1*15:01) (Homo sapiens, UniProt P01903+P01911); test: as above; conditions: percentage of the signal of the positive control peptide; positive binding score >=15%
T2 construct: purchased ProImmune
Source text: as §1

HLA class I alleles = test: ProImmune REVEAL MHC class I binding assay, summary over the seven alleles; design: species or system human; conditions: for Number of allele (b): number of class I alleles for which positive binding was detected; for Number of HLA binders (a): total number binding epitopes detected for each long peptide, seven class I alleles
Source text: (§2) The number of HLA class I binding registers contained in each peptide may be determined by determining the ability of the peptide to bind to a range of frequently occurring HLA class I molecules. HLA class I binding may be measured using the ProImmune REVEAL® MHC-peptide Binding Assay (ProImmune Ltd, Oxford, UK). The REVEAL™ MHC peptide-binding assay measures the ability of each peptide to stabilize the ternary MHC-peptide complex for […], HLA-A*0201, HLA¬A*0301, HLA-A*2402, HLA-B*0702, HLA-B*0801, HLA-B*3501 representative of main HLA class I supertypes. Each tested peptide is given a score relative to a pass/fail control peptide and also compared to a positive control peptide.
(§3) Detection is based on the presence or absence of the native conformation of the MHC-peptide complex. The highly frequent HLA class I alleles (HLA-A*0201, A*0301, A*1101, A*2402, B*0702, B*0801, and B*3501) were selected. Binding to MHC molecules was compared to that of a known T-cell epitope, a positive control peptide, with very strong binding properties. […] The score of the test peptide is reported quantitatively as a percentage of the signal generated by the positive control peptide, and the peptide is indicated as having a putative pass or fail result. Good binders are considered to be those peptides with scores 45% of the positive control as defined by ProImmune.

HLA class II alleles = test: ProImmune REVEAL MHC class II binding assay, summary over the seven alleles; design: species or system human; conditions: number of class II alleles for which positive binding (score >=15%) was detected
Source text: as §1

[3] = biological target: T3, HLA-DR13 (α1*01:01;β1*13:01) (Homo sapiens, UniProt P01903+P01911, A100E/A169T/K41T/L162R/M171V/P40S/Q125H/Q178H/Q39Y/Q99D/R42S/S66N/W38E/Y61H); test: ProImmune REVEAL MHC class II binding assay of long peptides; conditions: percentage of the signal of the positive control peptide; positive binding score >=15%
T3 construct: purchased ProImmune
T3 sequence (P01903 26-216, other chains not shown): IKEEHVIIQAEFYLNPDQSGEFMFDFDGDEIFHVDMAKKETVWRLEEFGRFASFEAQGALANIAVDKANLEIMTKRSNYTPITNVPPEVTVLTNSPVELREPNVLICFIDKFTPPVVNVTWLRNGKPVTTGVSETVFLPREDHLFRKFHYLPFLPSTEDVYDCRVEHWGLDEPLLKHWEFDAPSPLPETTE
Source text: The highly frequent HLA class II alleles HLA-DR1 (α1*01:01;β1*01:01), HLA-DR15 (α1*01:01;β1*15:01), HLA-DR3 (α1*01:01;β1*03:01), HLA-DR4 (α1*01:01;β1*04:01), HLA-DR11 (α1*01:01;β1*11:01), HLA-DR13 (α1*01:01;β1*13:01), and HLA-DR7 (α1*01:01;β1*07:01) were selected. Each peptide was given a score relative to the positive control peptide, which is a known T-cell epitope.

HLA-B*0801 = HLA-B*0801 (Homo sapiens, UniProt P01889, A93T/A95T/D138N/E176V/E187T/K202T/Q94N/R180D/S35A/V36M/Y33D/Y91F); test: ProImmune REVEAL MHC class I binding assay of nonamers; conditions: score as % of positive control peptide
Source text: as §2, §3

HLA-B*3501 = HLA-B*3501 (Homo sapiens, UniProt P01889, A329T/A93T/A95T/C349S/D201E/D98Y/E176V/E187L/E204Q/E69T/I218V/K202T/L119I/Q94N/R155S/R180L/S121R/S35A/S48A/T118I/V127L/V306I/V36M/Y140S/Y91F); test: as above; conditions: score as % of positive control peptide
Source text: as §2, §3

HLA-A*0301 = biological target: T4, HLA-A*0301 (Homo sapiens, UniProt P04439); test: as above; conditions: score as % of positive control peptide
T4 construct: purchased ProImmune
Source text: as §2, §3

HLA-A*1101 = biological target: T5, HLA-A*1101 (Homo sapiens, UniProt P04439, A114D/D185E/E176A/F33Y/L180Q/S129P/T187R); test: as above; conditions: score as % of positive control peptide
T5 construct: purchased ProImmune
Source text: as §2, §3

HLA-A*0201 = HLA-A*0201 (Homo sapiens, UniProt P04439, D140Y/D185E/D98H/E176V/E277Q/G131W/G231S/I119V/I121R/I166T/I218V/L300P/L318F/N151K/N90K/P208A/P217A/Q86G/Q94H/R138H/R169H/T345S); test: as above; conditions: score as % of positive control peptide
Source text: as §2, §3

HLA-B*0702 = biological target: T6, HLA-B*0702 (Homo sapiens, UniProt P01889); test: as above; conditions: score as % of positive control peptide
T6 construct: purchased ProImmune
Source text: as §2, §3

HLA-A*2402 = HLA-A*2402 (Homo sapiens, UniProt P04439, D101N/D140Y/D185E/E176V/E190D/F33S/G103R/G107R/I119L/I121M/I306V/K335N/L105A/L180Q/L300P/N151K/N90K/Q86E/Q94H/R106L/R138H/R89G/T104I/T345S/V100E/W191G/Y123F); test: as above; conditions: score as % of positive control peptide
Source text: as §2, §3

[4] = test system: HLA-DR3 (α1*01:01;β1*03:0); test: ProImmune REVEAL MHC class II binding assay of long peptides; design: species or system human; conditions: percentage of the signal of the positive control peptide; positive binding score >=15%
Source text: as §1

[5] = test system: HLA-DR1 (α1*01:01;β1*01:01); test: as above; design: species or system human; conditions: percentage of the signal of the positive control peptide; positive binding score >=15%
Source text: as §1

BALB/c mice = test: Immunogenicity in mice, IFNγ ELISpot of splenocytes, FP02.1 vs NP02.1 (Example 6); format: in vivo; conditions: mice immunised with FP02.1 or NP02.1, restimulation 5 μg/mL/peptide, FIG. 15
Method: The immunogenicity in mice of FP02.1 (containing nine fluorocarbon-conjugated peptides) was compared to NP02.1 (containing nine equivalent unconjugated peptides).
Alternatively, splenocytes were stimulated in vitro with 5 μg/mL/peptide of nine individual peptides for 18 hours in an ELISpot assay. The number of IFNγ+ spot forming cells (SFC) was counted. Plates then were washed with PBS, incubated with an IFNγ detection peroxidase-labelled antibody, followed by a substrate, according to the manufacturer's instructions.

[6] = test system: PBMC from chronic HBV-infected subjects; test: IFNγ ELISpot of PBMC restimulated with individual unconjugated HBV long peptides (Example 5); format: cell-based, human; conditions: for T cell responses (IFNγ ELISpot), level and frequency of responders: HBeAg-negative inactive carriers and HBeAg-negative treated subjects, 5 μg/mL, 18 h, FIGS. 9 and 10; for T cell responses (IFNγ ELISpot) grouped by infecting HBV genotype: genotypes A, B, C & D, FIG. 11; for T cell responses (IFNγ ELISpot) grouped by ethnic background: three ethnic groups, FIG. 12
Method: One vial of PBMC from each subject (containing 1×10^7 cells) was thawed and lymphocyte numbers were determined using a Scepter™ automated handheld cell counter. PBMC were cultured in 2 mL culture medium (CM: RPMI-1640 Glutamax supplemented with 5% human AB serum) in 24 well cell culture plates at a concentration of 1×10^6 cells/mL for a total of 11 days. Cells were stimulated with a mixture of the nine HBV-derived long peptides described in Example 3.
Each peptide was used at a final concentration of 1 μg/peptide/mL. On Day 4, IL-2 and IL-15 were added to the cultures to final concentrations of 10 IU/mL and 10 ng/mL respectively. On Day 10, cells were washed twice in CM and cultured with 10 IU/mL IL-2 for 1 additional day. On Day 11, cells were washed twice in CM, counted and incorporated in a human IFNγ (interferon-gamma) ELISpot assay or intracellular cytokine staining.
Cells from short term cultures were plated in triplicate wells at 5×10^4 PBMC/well. Final antigen concentrations used were: 5 μg/mL for each individual peptides; PHA positive control: 1 μg/mL.

Substance	binding score, HLA-DR7 (α1*01:01;β1*07:01) [1] [%]	binding score, HLA-DR15 (α1*01:01;β1*15:01) [2] [%]	Number of allele (b) (HLA class I alleles)	Number of HLA binders (a) (HLA class I alleles)	Number of allele (a) (HLA class II alleles)	binding score, HLA-DR13 (α1*01:01;β1*13:01) [3] [%]	Number of nonamers having a binding score >= 45%, HLA-B*0801 (HLA-B*0801)	Number of nonamers having a binding score >= 45%, HLA-B*3501 (HLA-B*3501)	Number of nonamers having a binding score >= 45%, HLA-A*0301 (HLA-A*0301)	Number of nonamers having a binding score >= 45%, HLA-A*1101 (HLA-A*1101)	Number of nonamers having a binding score >= 45%, HLA-A*0201 (HLA-A*0201)	Number of nonamers having a binding score >= 45%, HLA-B*0702 (HLA-B*0702)	Number of nonamers having a binding score >= 45%, HLA-A*2402 (HLA-A*2402)	binding score, HLA-DR3 (α1*01:01;β1*03:0) [4] [%]	binding score, HLA-DR1 (α1*01:01;β1*01:01) [5] [%]	IFNγ response of splenocytes to each individual peptide component (BALB/c mice)	IFNγ response of splenocytes to each individual peptide component (BALB/c mice; listed as P376)	T cell responses (IFNγ ELISpot), level and frequency of responders [6]	T cell responses (IFNγ ELISpot) grouped by infecting HBV genotype [6]	T cell responses (IFNγ ELISpot) grouped by ethnic background [6]
NP277(K): unconjugated HBV long peptide, polymerase 260-293 + KKK (RVSWPKFAVPNLQSLTNLLSSNLSWLSLDVSAAFYHKKK; HBV CONSENSUS SEQUENCE)	0.01	0.18	5	18	1	0.00	1	3	0	0	6	3	5	0.10	0.49					
NP376: unconjugated HBV long peptide, polymerase 359-398 (C to S substitution at 393) (KLHLYSHPIILGFRKIPMGVGLSPFLLAQFTSAISSVVRR; HBV CONSENSUS SEQUENCE)		6.29	6	35		0.00	6	6	0	1	8	4	10	0.00	27.71	immune responses were dominated by four out of the 9 peptides contained in the vaccine	only observed with the formulation containing the fluorocarbon-conjugated peptides	highest level of responses in both patient populations and in the highest proportion of subjects	highest responses across all four genotypes A, B, C & D	highest responses across all three ethnic groups
NP797(K): unconjugated HBV long peptide, core 780-814 (C to S at 792) + KKK	0.01	1.14	7	22	0	0.00	3	2	1	1	6	4	5	0.00	0.20			highest level of responses in both patient populations and in the highest proportion of subjects	highest responses across all four genotypes A, B, C & D	highest responses across all three ethnic groups
